Here are results for one molecule from patent publication US20120321557A1 (FORERUNNER PHARMA RESEARCH, published 2012).

One assay concerns the target T1, human ICAM1 (human, UniProt P05362 28-532).
T1 construct: also called ICAM1/BaF3 (cells that carry it)
The assay is described as follows: FACS on ICAM1-expressing BaF3 transfectant, anti-mouse IgG-FITC detection. As to the method:
(§1) Next, using these cell lines thus established, the cross-reactivity of IB23 with the ICAM family was analyzed. Each 10 μg/ml of the IB23 antibody, an anti-human ICAM1 antibody (R&D Systems, Inc., #BBA3), and an anti-human ICAM5 antibody (R&D Systems, Inc., #MAB1950) were reacted with ICAM1/BaF3 and ICAM5/BaF3. Then, after staining with an anti-mouse IgG-FITC antibody (Beckman Coulter #IM0819), the binding of each antibody was analyzed by FACS (Becton, Dickinson and Company).

In a further assay the target is T2, human ICAM5 (human, UniProt Q9UMF0 32-924).
T2 construct: also called ICAM5/BaF3 (cells that carry it)
T2 sequence: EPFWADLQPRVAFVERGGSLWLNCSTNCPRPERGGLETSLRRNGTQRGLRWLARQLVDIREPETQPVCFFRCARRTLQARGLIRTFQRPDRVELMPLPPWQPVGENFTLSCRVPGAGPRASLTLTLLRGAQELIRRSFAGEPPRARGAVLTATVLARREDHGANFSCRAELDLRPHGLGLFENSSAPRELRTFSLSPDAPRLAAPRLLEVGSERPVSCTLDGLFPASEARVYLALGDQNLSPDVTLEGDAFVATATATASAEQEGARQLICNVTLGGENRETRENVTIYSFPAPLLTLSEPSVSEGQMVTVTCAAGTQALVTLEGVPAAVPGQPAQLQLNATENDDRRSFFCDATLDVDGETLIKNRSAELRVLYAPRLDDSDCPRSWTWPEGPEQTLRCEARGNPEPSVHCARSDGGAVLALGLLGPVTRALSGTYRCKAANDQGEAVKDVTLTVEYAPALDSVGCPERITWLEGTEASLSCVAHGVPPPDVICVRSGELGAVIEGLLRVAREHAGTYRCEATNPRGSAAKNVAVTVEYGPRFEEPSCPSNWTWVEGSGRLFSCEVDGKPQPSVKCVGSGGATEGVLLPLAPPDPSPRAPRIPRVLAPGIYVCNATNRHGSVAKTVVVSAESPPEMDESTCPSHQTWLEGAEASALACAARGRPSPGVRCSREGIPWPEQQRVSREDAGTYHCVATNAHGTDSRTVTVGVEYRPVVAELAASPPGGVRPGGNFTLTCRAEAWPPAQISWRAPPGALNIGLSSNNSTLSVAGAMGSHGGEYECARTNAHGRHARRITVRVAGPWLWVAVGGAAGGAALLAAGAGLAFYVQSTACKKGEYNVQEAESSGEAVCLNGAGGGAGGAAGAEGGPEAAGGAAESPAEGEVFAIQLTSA
The assay is described as follows: FACS on ICAM5-expressing BaF3 transfectant, anti-mouse IgG-FITC detection. As to the method:
as §1

T1 sequence (P05362 28-532 K469E limits assumed): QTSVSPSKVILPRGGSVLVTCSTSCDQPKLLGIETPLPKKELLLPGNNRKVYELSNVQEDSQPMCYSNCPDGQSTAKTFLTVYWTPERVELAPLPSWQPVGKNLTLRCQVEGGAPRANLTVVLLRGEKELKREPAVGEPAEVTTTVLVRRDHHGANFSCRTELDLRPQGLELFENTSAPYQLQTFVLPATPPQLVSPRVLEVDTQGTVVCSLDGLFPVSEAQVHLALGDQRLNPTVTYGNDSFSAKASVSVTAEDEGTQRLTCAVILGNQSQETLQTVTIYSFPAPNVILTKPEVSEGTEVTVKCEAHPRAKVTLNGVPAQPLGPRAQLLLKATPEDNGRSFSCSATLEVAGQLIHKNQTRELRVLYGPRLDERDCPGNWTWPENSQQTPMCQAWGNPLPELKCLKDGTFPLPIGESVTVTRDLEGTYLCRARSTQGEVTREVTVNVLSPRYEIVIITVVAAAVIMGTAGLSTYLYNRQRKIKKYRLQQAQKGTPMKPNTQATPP

B1: mouse monoclonal antibody IB23 (antibody, V domains shown)
VH: QVQLQQSGAELAKPGASVKMSCKASGYTFTTYWMHWVKQRPGQGLEWIGYINPNTDYTEYNQKFKDKATLTADKSSSTAFMQLSSLTSEDSAVYYCASSRDAYHGTYWGQGTLVTVSA
VL: DIVMTQSPATLSVTPGDRVSLSCRASQSISDYLHWYQQKSHESPRLLIRYASQSISGIPSRFSGSGSGSDFTLSINNVEPEDVGVYYCQNGHNFPLTFGAGTKLELK
notes: Mouse hybridoma antibody purified on Protein G and detected with anti-mouse IgG-FITC; also called IB23 antibody; mouse IB23 antibody
With B1, the binding result in the assay with human ICAM1 and with human ICAM5 was “no binding (tested: 10 µg/ml)” throughout.
